Data published in patent publication US20250333514A1 (CDR LIFE, published 2025).

Target: T1, HLA-A*02:01/PRAME antigen (recombinant, … on HLA-A*02:01) (human, Complex biotinylated for SPR capture; site of biotin and any tag not stated, not in the letters.)
T1 construct: also called PRAME target; pMHC
Assay: SPR (Biacore 8K), biotinylated pMHC captured, Fab-scFv analyte, single-cycle kinetics, 1:1 fit
Protocol: Recombinantly produced hits in Fab-scFv format, as described in Example 4, were evaluated for their ability to bind HLA-A*02:01/PRAME antigen. Binding characterization was performed by surface plasmon resonance (SPR) using a Biacore™ 8k (Cytiva) device. Briefly, 3000 RU of Biotin CAPture reagent (Cytiva) was immobilized on a Series S Sensor Chip CAP (Cytiva) and the biotinylated ligand HLA-A*02:01/PRAME (SEQ ID NO: 68) was diluted in HPS-EP+ running buffer (TEKNOVA) and captured for 300 s at a flow rate of 2 μL/min at flow cell 2 resulting in a ligand capture level of >100 RU. Subsequently, at least three consecutive analyte injections were performed at suitable concentrations applying the single-cycle-kinetics mode at a flow rate of 30 μL/min with an association time of 90 s and the dissociation time set to >400 s. The chip surface was regenerated according to the manufacturer's instructions. After reference flow cell signal and blank injections subtraction, the data was fit to a 1:1 Langmuir binding model to determine the association rate constant kₐ and dissociation rate constant kd and calculate the equilibrium dissociation constant KD (kd/kₐ), also denoted as affinity, using the Biacore™ Insight Evaluation software.

B1: M3286 (bispecific antibody)
heavy: EVQLVESGGGLVQPGGSLRLSCAASGFTFSTYAMNWVRQAPGKGLEWVGRIRSKYNNYATYYADSVKGRFTISRDDSKNTLYLQMNSLRAEDTAVYYCVRHGNFGDSYVSWFAYWGQGTLVTVSSASTKGPSVFPLAPSSKSTSGGTAALGCLVKDYFPEPVTVSWNSGALTSGVHTFPAVLQSSGLYSLSSVVTVPSSSLGTQTYICNVNHKPSNTKVDKKVEPKSCGGGGSDIQMTQSPSSLSASVGDRVTITCRSSQSVYNNLLGWYQQKPGKAPKLLIYSASTLASGVPSRFSGSGSGTDFTLTISSLQPEDSATYYCQGTYYTGDWYYPFGCGTKVEIKGGGGSGGGGSGGGGSGGGGSQVQLVESGGGSVQPGRSLRLSCAASGFTFSTYGVSWVRQAPGKCLEWIGYIDPVYGSTHYADSVKGRFTISRDNSKNTLYLQMNSLRAEDTASYYCARDLYAGSSGYYMIYSLWGQGTSVTVSS
light: QAVVTQEPSLTVSPGGTVTLTCGSSTGAVTTSNYANWVQQKPGKSPRGLIGGTNKRAPGVPARFSGSLLGGKAALTISGAQPEDEADYYCALWYSNHWVFGGGTKLTVLGQPKAAPSVTLFPPSSEELQANKATLVCLISDFYPGAVTVAWKADSSPVKAGVETTTPSKQSNNKYAASSYLSLTPEQWKSHRSYSCQVTHEGSTVEKTVAPTECS
notes: Humanized variant of M2638, monovalent Fab-scFv
Kd: 1.5 nM

B2: M3293 (bispecific antibody)
heavy: EVQLVESGGGLVQPGGSLRLSCAASGFTFSTYAMNWVRQAPGKGLEWVGRIRSKYNNYATYYADSVKGRFTISRDDSKNTLYLQMNSLRAEDTAVYYCVRHGNFGDSYVSWFAYWGQGTLVTVSSASTKGPSVFPLAPSSKSTSGGTAALGCLVKDYFPEPVTVSWNSGALTSGVHTFPAVLQSSGLYSLSSVVTVPSSSLGTQTYICNVNHKPSNTKVDKKVEPKSCGGGGSDIQMTQSPSSLSASVGDRVTITCRSSQSVYNNLLGWYQQKPGKAPKLLIYSASTRASGVPSRFSGSGSGTDFTLTISSLQPEDSATYYCQGTYYTGDWYYPFGCGTKVEIKGGGGSGGGGSGGGGSGGGGSQVQLVESGGGSVQPGRSLRLSCAASGFDFSTYGVSWVRQAPGKCLEWIGYIDPVYGSTHYADSVKGRFTISRDNSKNTLYLQMNSLRAEDTASYYCVRDLYAGSSGYYMIYSLWGQGTSVTVSS
light: QAVVTQEPSLTVSPGGTVTLTCGSSTGAVTTSNYANWVQQKPGKSPRGLIGGTNKRAPGVPARFSGSLLGGKAALTISGAQPEDEADYYCALWYSNHWVFGGGTKLTVLGQPKAAPSVTLFPPSSEELQANKATLVCLISDFYPGAVTVAWKADSSPVKAGVETTTPSKQSNNKYAASSYLSLTPEQWKSHRSYSCQVTHEGSTVEKTVAPTECS
notes: as for B1
Kd: 0.05 nM
